Test results published in patent US20200264197A1 (FRAUNHOFER GESELLSCHAFT ZUR F RDERUNG DER ANGEWANDTEN …, published 2020).
Numbered stars: 1 amine (or outer) side, 2 acyl side, 3 side chain; on linkers, the order of the positions; unused ones are H or OH. Square brackets hold non-standard residues; d marks the D form. Ends that are not written are not given here. βAsp = O=C(O)[C@H](CC(=O)[*:2])N[*:1]; pGlu = O=C1CC[C@@H](C(=O)O)N1

T1: Aβ(1-18) (human)
T1 construct: also called wildtype peptide Aβ(1-18)
T1 peptide: DAEFRHDSGYEVHHQKLV

T2: isod7-Aβ(1-17) (human, D-isoaspartate at position 7)
T2 construct: also called D-isoaspartate isomer containing peptide derivative
T2 peptide: DAEFRHXSGYEVHHQKL

T3: pE3-Aβ(3-18)
T3 peptide: [pGlu]FRHDSGYEVHHQKLV

T4: pE3-isoD7-Aβ(3-18)
T4 peptide: [pGlu]FRH[βAsp]SGYEVHHQKLV

T5: Mouse isoD7-Aβ(1-18) (mouse)
T5 peptide: DAEFGH[βAsp]SGFEVRHQKLV

B1: monoclonal antibody K11 (antibody, mouse IgG1, kappa, V domains shown)
VH: QVQLKESGPGLVAPSQSLSITCTVSGFSLTSYGVHWVRQPPGKGLEWLGALWASGNTDYSSTLMSRLSISKDNSKSQVFLKMNSLQTDDTAMYYCARDRGILTGGYFDVWGAGTTVTVSS
VL: DIVMSQSPTSLAVSAGEKVTMSCKSSQSLLNSRNRKNYLAWYQQKPGQSPKLLIYWASTRDSGVPDRFTGSGSGTDFTLTISSVQAEDLAVYYCKQSYNLRTFGGGTKLEIKR
notes: Mouse monoclonal antibody from a hybridoma; also called clone K11; anti isoAsp7-Aβ antibody K11
B2: monoclonal antibody K119 (antibody, mouse IgG2a, kappa, V domains shown)
VH: EVKLVESGGGLVQPGGSLRLSCATSGFTFTDYYMSWVRQPPGKALEWLGFIRNKANGYTTEYSASVKGRFTISRDNSQSILYLQMNTLRTEDSATYYCTRDIPTIMDYWGQGTSVTVSS
VL: DIVMSQSPSSLAVSAGEKATMSCKSSQSLFNSRTRKNYVAWLQQKPGQSPKLLISWASTRESGVPDRFTGSGSGTDFALTITNVQAEDLAVYYCKQSYNLRAFGGGTKLEITR
notes: Mouse monoclonal antibody from a hybridoma

Legend:
[1] = biological target: T1, Aβ(1-18); experiment: SPR, antibody captured on goat anti-mouse IgG, peptide as analyte; SPR
Experimental: (§1) FIG. 2: Determination of binding constants of immobilized K11 with different Aβ-peptides by SPR analysis. 1,500-2,000 RU of antibody K11 were immobilized on a CMS chip by binding to goat anti mouse IgG. Monomeric Aβ peptides were injected in varying concentrations. KD values were calculated by using single-cycle kinetic analysis of BIAevaluation software. A—isoD7-Aβ(1-18) was applied at 1 nM, 3 nM, 9 nM, 27 nM, 81 nM and 243 nM. B—isod7-Aβ(1-17) was applied at 1 nM, 3 nM, 9 nM, 27 nM, 81 nM and 243 nM. C—Aβ(1-18) was applied at […], 30 nM, 90 nM, 270 nM, 810 nM and 2430 nM.
(§2) In order to bind analyzing antibodies K11 and K119 to a CMS sensor Chip (GE Healthcare, Product code BR100012), approximately 15,000-20,000 RU of goat anti mouse IgG (Thermo Fisher Scientific, PA1 28555) were immobilized first. To immobilize the anti-mouse IgG, the carboxymethylated dextran surface of the sensor chip was activated by mixing 0.1 M N-hydroxysuccinimide (NHS) with 0.4 M N-ethyl-N′-(dimethylaminopropyl)carbodiimide hydrochloride (EDC) 1:1. EDC/NHS was applied to the sensor chip for 10 minutes with a flow rate of 10 μl/min. Goat anti mouse IgG was diluted to 50 μg/ml in 10 mM Sodium acetate, pH 5.5 and injected for 2×3 minutes with a flow rate of 10 μl/min. […]

[2] = biological target: T2, isod7-Aβ(1-17); experiment: as above
Experimental: as §1, §2

[3] = biological target: T6, Aβ(1-30); experiment: sandwich ELISA: K11 immobilised at 2 µg/ml as capture, peptide serially diluted, HRP-conjugated 4G8 as detection, absorbance 450/540 nm
T6 construct: also called non-modified Aβ peptide
T6 sequence (peptide, as listed by the source): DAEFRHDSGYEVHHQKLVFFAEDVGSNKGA
Experimental: FIG. 8: Sandwich ELISA for quantification of isoAsp7-Aβ and total Aβ concentrations in biological samples. Capture antibodies K11 (A) and 3D6 (B) were diluted to 2 μg/ml and immobilized on microtiter plates overnight at 4° C. Blocking occurred for 2 hours at room temperature. isoD7-Aβ(1-30) (SEQ ID NO: 51) and Aβ(1-30) (SEQ ID NO: 52) were serially diluted and added to the wells in duplicate. After an incubation period of 2 hours at 4° C., plates were washed six times with TBS-T. HRP-conjugated anti Aβ antibody clone 4G8 was added in a final concentration of 1 μg/ml and incubated for 1 hour at 4° C. After washing with TBS-T, a color reaction with TMB was performed and stopped by the addition of 1.2 N H₂SO₄. The standard curve was calculated from measured absorption at 450/540 nm by a 4-Parameter-Logistic-Fit: y=(A2+(A1−A2)/(1+(x/x₀)\hat{ }p).
In order to determine the amounts of isoD7-Aβ in biological samples, an indirect Sandwich ELISA was established. Therefore, K11 was diluted in PBS to 2μg/ml and immobilized on polystyrene 96-well microtiter plates overnight at 4° C. Blocking occurred for 2 hours at 4° C. with ELISA Blocker (Thermo Fisher Scientific). […] Absorption at 450/540 nm was determined by a Tecan Sunrise plate reader. The standard curve was calculated from measured absorption by a 4-Parameter-Logistic-Fit: y=(A2+(A1−A2)/(1+(x/x0)\hat{ }p).

[4] = biological target: T3, pE3-Aβ(3-18); experiment: SPR, antibody captured on goat anti-mouse IgG, peptide as analyte
Excerpt: (§3) In order to bind analyzing antibodies K11 and K119 to a CMS sensor Chip (GE Healthcare, Product code BR100012), approximately 15,000-20,000 RU of goat anti mouse IgG (Thermo Fisher Scientific, PA1 28555) were immobilized first. To immobilize the anti-mouse IgG, the carboxymethylated dextran surface of the sensor chip was activated by mixing 0.1 M N-hydroxysuccinimide (NHS) with 0.4 M N-ethyl-N′-(dimethylaminopropyl)carbodiimide hydrochloride (EDC) 1:1. EDC/NHS was applied to the sensor chip for 10 minutes with a flow rate of 10 μl/min. Goat anti mouse IgG was diluted to 50 μg/ml in 10 mM Sodium acetate, pH 5.5 and injected for 2×3 minutes with a flow rate of 10 μl/min. After deactivation with 1 M ethanolamine, pH 8.5 for 2×7 minutes with a flow rate of 10 μl/min, 0.1 M glycine, pH 1.7 was applied to the sensor chip with a flow rate of 30 μl/min for 3 minutes, followed by a washing step with HBS-EP buffer (GE Healthcare, Product code BR100188).
(§4) Binding of about 2,000 RU anti isoAsp7-Aβ antibodies occurred with a flow rate of 10 μl/min. To achieve this, antibodies were diluted to 25 μg/ml in HBS-EP buffer and applied to the sensor chip, followed by washing with HBS-EP until the RU signal remains constant.
(§5) Kinetic constants were determined by applying Aβ peptides at different concentrations and calculated from the combined set of data by using BIAevaluation software (Biacore AB) (FIG. 2A and FIG. 3).

[5] = biological target: T7, Aβ(1-40); experiment: as above
T7 construct: Synthetic peptide; also called wildtype Aβ(1-40)
T7 sequence (peptide, as listed by the source): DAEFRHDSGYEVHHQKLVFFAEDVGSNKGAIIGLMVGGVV
Excerpt: as §3, §4, §5

[6] = biological target: T8, isoD7-Aβ(1-40) (isoAsp at position 7); experiment: as above
T8 construct: Synthetic peptide
T8 sequence (peptide, as listed by the source): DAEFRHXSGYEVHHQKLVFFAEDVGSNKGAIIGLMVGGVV
Excerpt: as §3, §4, §5

[7] = biological target: T4, pE3-isoD7-Aβ(3-18); experiment: as above
Excerpt: as §3, §4, §5

[8] = biological target: T5, Mouse isoD7-Aβ(1-18); experiment: as above
Excerpt: as §3, §4, §5

[9] = biological target: T1, Aβ(1-18); experiment: SPR, antibody captured on goat anti-mouse IgG, peptide as analyte; SPR; very weak, KD 931,000 nM
Excerpt: as §3
Binding of about 2,000 RU anti isoAsp7-Aβ antibodies occurred with a flow rate of 10 μl/min. […]
as §5

| Binder | Kd [1] [nM] | Kd [2] [nM] | binding result [3] | Kd [4] [nM] | Kd [5] [nM] | Kd [6] [nM] | Kd [7] [nM] | Kd [8] [nM] | Kd [9] [nM] |
| --- | --- | --- | --- | --- | --- | --- | --- | --- | --- |
| B1 | 2700 | 2690 | no binding (tested: 140 pg/ml) | 402 | 1670 | 3.5 | 1.7 | 153 |  |
| B2 |  |  |  |  |  |  |  |  | 931000 |
